{"source": "the supplement of paper PMC7877785", "assay": "self-splicing fitness, log relative to wild type (ln ratio); higher = more splicing; Tetrahymena group I intron in knt gene, E. coli kanamycin selection, DiMSum; sequences stand for … in CUCUCU…GGAGGGAAAAGUUAUCAGGCAUGCACCUGGUAGCUAGUCUUUAAACCAAUAGAUUGCAUCGGUUUAAAAGGCAAGACCGUCAAAUUGCGGGAAAGGGGUCAACAGCCGUUCAGUACCAAGUCUCAGGGGAAACUUUGAGAUGGCCUUGCAAAGGGUAUGGUAAUAAGCUGACGGACAUGGUCCUAACCACGCAGCCAAGUCCUAAGUCAACAGAUCUUCUGUUGAUAUGGAUGCAGUUCACAGACUAAAUGUCGGUCGGGGAAGAUGUAUUCUUCUCAUAAGAUAUAGUCGGACCUCUCCUUAAUGGGAGCUAGCGGAUGAAGUGAUGCAACACUGGAGCCGCUGGGAACUAAUUUGUAUGCGAAAGUAUAUUGAUUAGUUUUGGAGUACUCGUGGUCG", "method_in_brief": "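Fitness was computed with DiMSum as the error-weighted combination of replicate fold changes, kanamycin versus none, each normalised to wild type. The library randomised all eight intron nucleotides of the P1ex region, with the intron placed in the knt kanamycin-resistance gene on pET-22b(+) in E. coli BL21(DE3). Six replicate transformations were grown overnight at 37°C or 30°C on LB agar with or without 25 μg/mL kanamycin, plus 100 μg/mL carbenicillin, 50 μM IPTG and 0.2% rhamnose. Pooled colonies were amplicon-sequenced on an Illumina HiSeq 2500.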", "note": "± gives the uncertainty stated by the source.", "data": [{"sequence": "UUUUAGCAAUAUUACGCCGG", "values": [{"measurement": "self-splicing fitness (ln)", "setting": "30 °C", "result": "-1.28 ± 0.18"}, {"measurement": "self-splicing fitness (ln)", "setting": "37 °C", "result": "-0.833 ± 0.21"}]}, {"sequence": "UUUUAGCAAUAUUACGCCUG", "values": [{"measurement": "self-splicing fitness (ln)", "setting": "30 °C", "result": "-0.393 ± 0.22"}, {"measurement": "self-splicing fitness (ln)", "setting": "37 °C", "result": "0.333 ± 0.3"}]}, {"sequence": "UUUUAGCAAUAUUACGCCUU", "values": [{"measurement": "self-splicing fitness (ln)", "setting": "30 °C", "result": "-1.74 ± 0.34"}, {"measurement": "self-splicing fitness (ln)", "setting": "37 °C", "result": "-0.968 ± 0.22"}]}, {"sequence": "UUUUAGCAAUAUUACGCGAC", "values": [{"measurement": "self-splicing fitness (ln)", "setting": "30 °C", "result": "-2.52 ± 0.34"}]}, {"sequence": "UUUUAGCAAUAUUACGCUAG", "values": [{"measurement": "self-splicing fitness (ln)", "setting": "30 °C", "result": "-3.18 ± 0.34"}, {"measurement": "self-splicing fitness (ln)", "setting": "37 °C", "result": "-1.7 ± 0.35"}]}, {"sequence": "UUUUAGCAAUAUUACGCUCA", "values": [{"measurement": "self-splicing fitness (ln)", "setting": "30 °C", "result": "-0.731 ± 0.29"}, {"measurement": "self-splicing fitness (ln)", "setting": "37 °C", "result": "0.849 ± 0.44"}]}, {"sequence": "UUUUAGCAAUAUUACGCUCC", "values": [{"measurement": "self-splicing fitness (ln)", "setting": "30 °C", "result": "-1.4 ± 0.33"}, {"measurement": "self-splicing fitness (ln)", "setting": "37 °C", "result": "-1.25 ± 0.45"}]}, {"sequence": "UUUUAGCAAUAUUACGCUUU", "values": [{"measurement": "self-splicing fitness (ln)", "setting": "30 °C", "result": "-3.71 ± 0.28"}, {"measurement": "self-splicing fitness (ln)", "setting": "37 °C", "result": "-1.23 ± 0.16"}]}, {"sequence": "UUUUAGCAAUAUUACGGAUG", "values": [{"measurement": "self-splicing fitness (ln)", "setting": "30 °C", "result": "-1.12 ± 0.22"}, {"measurement": "self-splicing fitness (ln)", "setting": "37 °C", "result": "0.2 ± 0.15"}]}, {"sequence": "UUUUAGCAAUAUUACGGCUC", "values": [{"measurement": "self-splicing fitness (ln)", "setting": "30 °C", "result": "-2.49 ± 0.23"}, {"measurement": "self-splicing fitness (ln)", "setting": "37 °C", "result": "-0.329 ± 0.21"}]}, {"sequence": "UUUUAGCAAUAUUACGUCGU", "values": [{"measurement": "self-splicing fitness (ln)", "setting": "30 °C", "result": "-3.49 ± 0.15"}, {"measurement": "self-splicing fitness (ln)", "setting": "37 °C", "result": "-2.81 ± 0.17"}]}, {"sequence": "UUUUAGCAAUAUUACGUGUC", "values": [{"measurement": "self-splicing fitness (ln)", "setting": "30 °C", "result": "-2.93 ± 0.3"}, {"measurement": "self-splicing fitness (ln)", "setting": "37 °C", "result": "-2.26 ± 0.38"}]}, {"sequence": "UUUUAGCAAUAUUACGUGUG", "values": [{"measurement": "self-splicing fitness (ln)", "setting": "30 °C", "result": "-2.29 ± 0.16"}, {"measurement": "self-splicing fitness (ln)", "setting": "37 °C", "result": "-1.17 ± 0.15"}]}, {"sequence": "UUUUAGCAAUAUUACGUUAU", "values": [{"measurement": "self-splicing fitness (ln)", "setting": "30 °C", "result": "-2.53 ± 0.25"}, {"measurement": "self-splicing fitness (ln)", "setting": "37 °C", "result": "-1.73 ± 0.35"}]}, {"sequence": "UUUUAGCAAUAUUACGUUCA", "values": [{"measurement": "self-splicing fitness (ln)", "setting": "30 °C", "result": "-1.18 ± 0.21"}, {"measurement": "self-splicing fitness (ln)", "setting": "37 °C", "result": "-0.458 ± 0.22"}]}, {"sequence": "UUUUAGCAAUAUUACGUUGU", "values": [{"measurement": "self-splicing fitness (ln)", "setting": "30 °C", "result": "-2.65 ± 0.18"}, {"measurement": "self-splicing fitness (ln)", "setting": "37 °C", "result": "-2.13 ± 0.24"}]}]}
